Experimental findings from publication PMC11467389 are described below.

Series [1] is described as follows: CHX chase of Flag-PDK1, Western blot (half-life). The conditions noted are these: glycan lost; control: rhWnt3a alone. In general terms: A western blot detects proteins with antibodies after separation by electrophoresis.
Series [2] is described as follows: Western blot of endogenous PDK1 in ST2 cells. The conditions noted are these: glycan lost; control: rhWnt3a alone.
Series [3] in a line: MG132 6 h, Flag IP, ubiquitin blot. The conditions noted are these: glycan lost; control: Flag-PDK1 WT.
Series [4] is described as follows: CHX chase, anti-Flag Western blot (half-life). The conditions noted are these: glycan lost; control: Flag-PDK1 WT.

As for “PDK1 (pyruvate dehydrogenase kinase 1): OSMI”, the degradation_or_half_life entry in series [1] is “decreases”. For “PDK1 (pyruvate dehydrogenase kinase 1): DON”, the expression_or_secretion result in series [2] was “decreases”.

Regarding “PDK1 (pyruvate dehydrogenase kinase 1): S174A”, the “other: ubiquitination” value in series [3] was “increases”. Further, the degradation_or_half_life result in series [4] is reported as “decreases”.
